Measured values: article PMC11252000, “MFSD1 with its accessory subunit GLMP functions as a general dipeptide uniporter in lysosomes” (Nature Cell Biology, 2024)
Positions count from the first letter of the chain named. Where a SMILES comes first, the peptide text is derived from it.

Legend:
[1] = target: T1, MFSD1–GLMP oocytes (MFSD1L11A/L12A-EmGFP + GLMPY400A-mKate2) (Mus musculus, UniProt Q9DC37, L11A/L12A); test: TEVC competition with Lys–Ala current in oocytes; assay type: cell-based
T1 construct: heterodimer at plasma membrane of Xenopus laevis oocytes; lysosomal sorting mutants; EmGFP and mKate2 fusions; with Glycosylated lysosomal membrane protein
T1 sequence (Q9DC37 1-464 L11A/L12A): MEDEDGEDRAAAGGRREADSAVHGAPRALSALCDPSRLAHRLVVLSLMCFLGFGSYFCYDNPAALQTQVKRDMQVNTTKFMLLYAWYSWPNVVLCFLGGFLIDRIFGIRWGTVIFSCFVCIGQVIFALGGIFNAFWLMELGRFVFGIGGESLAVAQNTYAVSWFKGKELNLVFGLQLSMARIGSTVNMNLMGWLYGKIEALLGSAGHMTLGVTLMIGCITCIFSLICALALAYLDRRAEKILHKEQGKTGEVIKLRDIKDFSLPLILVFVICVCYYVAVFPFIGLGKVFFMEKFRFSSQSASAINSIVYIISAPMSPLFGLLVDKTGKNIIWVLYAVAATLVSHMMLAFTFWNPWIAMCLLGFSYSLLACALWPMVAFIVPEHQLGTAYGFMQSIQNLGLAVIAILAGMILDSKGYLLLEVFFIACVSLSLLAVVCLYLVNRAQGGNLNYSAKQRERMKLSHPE
T1 sequence (Q9JHJ3 36-404 Y400A partner): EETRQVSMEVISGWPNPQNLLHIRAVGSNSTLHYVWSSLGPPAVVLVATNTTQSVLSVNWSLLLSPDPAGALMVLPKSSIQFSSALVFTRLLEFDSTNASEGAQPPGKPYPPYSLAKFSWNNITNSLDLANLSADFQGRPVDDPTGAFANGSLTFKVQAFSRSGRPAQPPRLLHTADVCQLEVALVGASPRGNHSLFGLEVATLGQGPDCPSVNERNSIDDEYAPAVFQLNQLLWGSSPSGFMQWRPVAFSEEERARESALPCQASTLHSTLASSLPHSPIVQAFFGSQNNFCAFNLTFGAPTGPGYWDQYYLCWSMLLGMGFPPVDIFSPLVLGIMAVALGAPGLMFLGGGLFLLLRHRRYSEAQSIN

[2] = target: T2, MFSD1 (MFSD1WT, mmMFSD1, MFSD1-strep) (Mus musculus, UniProt Q9DC37); test: nanoDSF thermal shift titration; assay type: binding
T2 construct: full length; N-terminal Twin-Strep-tag + HRV 3C site; Expi293F; purified in DDM/CHS; liposomes POPE:POPG:CHS for transport
T2 sequence (Q9DC37 1-464): T1 sequence (Q9DC37 1-464 L11A/L12A) with A11L, A12L

Pro–Arg dipeptide = test: nanoDSF thermal stability assay; conditions: 5 mM peptide, n = 3, apo Tm of WT est. 40 °C, parent: est. 49, read off a plot
Leu–Ala dipeptide = test: nanoDSF thermal stability assay; conditions: 5 mM peptide, n = 3, apo Tm of WT est. 40 °C, parent: est. 47, read off a plot
Ala-His = test: nanoDSF thermal stability assay; conditions: 5 mM peptide, n = 3, apo Tm of WT est. 40 °C, parent: est. 40, read off a plot
His-Ser dipeptide = test: nanoDSF thermal stability assay; conditions: 5 mM peptide, n = 3, apo Tm of WT est. 40 °C, parent: est. 40, read off a plot
Ala–Ala dipeptide = test: nanoDSF thermal stability assay; conditions: 5 mM peptide, n = 3, apo Tm of WT est. 40 °C, parent: est. 41, read off a plot
Arg–Pro dipeptide = test: nanoDSF thermal stability assay; conditions: 5 mM peptide, n = 3, apo Tm of WT est. 40 °C, parent: est. 42, read off a plot
Lys–Val dipeptide = test: nanoDSF thermal stability assay; conditions: 5 mM peptide, n = 3, apo Tm of WT est. 40 °C, parent: est. 46, read off a plot
Anserine = test: nanoDSF thermal stability assay; conditions: 5 mM peptide, n = 3, apo Tm of WT est. 40 °C, parent: est. 40, read off a plot
His–Ala dipeptide = test: nanoDSF thermal stability assay; conditions: 5 mM peptide, n = 3, apo Tm of WT est. 40 °C, parent: est. 41, read off a plot
[3] = target: MFSD1-strep (mouse major facilitator superfamily domain containing 1 protein with N-terminal Twin-Strep-tag) (mouse) (UniProt Q9DC37); test: nanoDSF thermal shift; protein 0.2 mg/ml in 100 mM HEPES pH 7.5, 150 mM NaCl, 0.03% DDM, 0.003% CHS; 5 mM ligand, 30 min at room temperature; 20 to 95 °C at 1 °C/min (Prometheus NT.48)
[4] = target: GLMP + MFSD1 co-complex (co-expressed MFSD1-strep and GLMP-Ct-His-GFP, purified) (mouse) (UniProt Q9DC37)
[5] = apo Tm of this mutant est. 47 °C
[6] = apo Tm of this mutant est. 42 °C
[7] = apo Tm of this mutant est. 36 °C
[8] = apo Tm of this mutant est. 39 °C
[9] = apo Tm of this mutant est. 37 °C

Sequence of MFSD1-strep (mouse major facilitator superfamily domain containing 1 protein with N-terminal Twin-Strep-tag) (from UniProt Q9DC37) Q176K (Q9DC37 whole entry Q176K, looked up, the tested form may be a part): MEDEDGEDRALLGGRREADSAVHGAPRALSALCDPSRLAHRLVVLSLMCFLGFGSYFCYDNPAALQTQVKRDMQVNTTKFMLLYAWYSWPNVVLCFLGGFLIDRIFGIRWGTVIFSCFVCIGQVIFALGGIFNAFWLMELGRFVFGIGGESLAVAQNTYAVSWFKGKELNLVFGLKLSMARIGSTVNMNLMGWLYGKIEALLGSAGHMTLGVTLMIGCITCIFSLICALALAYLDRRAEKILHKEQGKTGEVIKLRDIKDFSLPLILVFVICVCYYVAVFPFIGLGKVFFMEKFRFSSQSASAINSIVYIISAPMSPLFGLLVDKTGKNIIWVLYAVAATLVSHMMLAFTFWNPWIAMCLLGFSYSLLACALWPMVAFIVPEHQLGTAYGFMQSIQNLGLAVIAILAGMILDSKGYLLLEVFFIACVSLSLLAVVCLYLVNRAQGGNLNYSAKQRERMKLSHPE
Sequence of MFSD1-strep (mouse major facilitator superfamily domain containing 1 protein with N-terminal Twin-Strep-tag) (from UniProt Q9DC37) Y56A (Q9DC37 whole entry Y56A, looked up, the tested form may be a part): as the sequence (Q9DC37 whole entry Q176K, looked up, the tested form may be a part) above, with Y56A, K176Q counted along it
Sequence of MFSD1-strep (mouse major facilitator superfamily domain containing 1 protein with N-terminal Twin-Strep-tag) (from UniProt Q9DC37) Q176E (Q9DC37 whole entry Q176E, looked up, the tested form may be a part): as the sequence (Q9DC37 whole entry Q176K, looked up, the tested form may be a part) above, with K176E counted along it
Sequence of MFSD1-strep (mouse major facilitator superfamily domain containing 1 protein with N-terminal Twin-Strep-tag) (from UniProt Q9DC37) W373A (Q9DC37 whole entry W373A, looked up, the tested form may be a part): as the sequence (Q9DC37 whole entry Q176K, looked up, the tested form may be a part) above, with K176Q, W373A counted along it
Sequence of MFSD1-strep (mouse major facilitator superfamily domain containing 1 protein with N-terminal Twin-Strep-tag) (from UniProt Q9DC37) Q176A (Q9DC37 whole entry Q176A, looked up, the tested form may be a part): as the sequence (Q9DC37 whole entry Q176K, looked up, the tested form may be a part) above, with K176A counted along it

`N[C@@H](CCC(=O)O)C(=O)N[C@@H](CO)C(=O)O` [Glu–Ser] (H-Glu-Ser-OH) gave an inhibition at 10000 µM ([1]; read-out: % inhibition at 10 mM) of 26 ± 3%.
Compound `NCCCC[C@H](NC(=O)[C@@H](N)Cc1c[nH]cn1)C(=O)O` [His–Lys] (H-His-Lys-OH) has a Kd [2] of 0.765 ± 0.136 mM.
“MFSD1-strep (mouse major facilitator superfamily domain containing 1 protein with N-terminal Twin-Strep-tag) (from UniProt Q9DC37) W373A” was tested, and the other: Tm (Pro–Arg dipeptide; [5]) was 47 °C, the other: Tm (Leu–Ala dipeptide; [5]) was 47 °C and the other: Tm (Ala-His; [5]) was 47 °C. The other: Tm (His-Ser dipeptide; [5]) was 47 °C, the other: Tm (Ala–Ala dipeptide; [5]) was 47 °C and the other: Tm (Arg–Pro dipeptide; [5]) was 46 °C. It also gave an other: Tm (Lys–Val dipeptide; [5]) of 47 °C, an other: Tm (Anserine; [5]) of 47 °C and an other: Tm (His–Ala dipeptide; [5]) of 47 °C.
`N=C(N)NCCC[C@H](NC(=O)[C@@H]1CCCN1)C(=O)O` [Pro–Arg] (H-Pro-Arg-OH) was tested, and the Kd [2] was 0.318 ± 0.0667 mM.
`CC(C)C[C@H](N)C(=O)N[C@@H](C)C(=O)O` [Leu–Ala] (H-Leu-Ala-OH) showed a Kd [2] of 2.2 ± 0.42 mM.
With Leu–Leu dipeptide the ΔTm at 5 mM ligand [3] was 14 °C.
With “MFSD1-strep (mouse major facilitator superfamily domain containing 1 protein with N-terminal Twin-Strep-tag) (from UniProt Q9DC37) Q176K” the other: Tm (Pro–Arg dipeptide; [6]) was 42 °C, the other: Tm (Leu–Ala dipeptide; [6]) was 53 °C and the other: Tm (Ala-His; [6]) was 43 °C. It also gave an other: Tm (His-Ser dipeptide; [6]) of 45 °C, an other: Tm (Ala–Ala dipeptide; [6]) of 46 °C and an other: Tm (Arg–Pro dipeptide; [6]) of 42 °C. The other: Tm (Lys–Val dipeptide; [6]) was 43 °C, the other: Tm (Anserine; [6]) was 43 °C and the other: Tm (His–Ala dipeptide; [6]) was 49 °C.
For Glu–Ser dipeptide, the inhibition of the current evoked by 3 mM Lys–Ala in MFSD1–GLMP oocytes (TEVC, pH 5.0) by 10 mM Glu–Ser applied simultaneously [4] was 26%.
“MFSD1-strep (mouse major facilitator superfamily domain containing 1 protein with N-terminal Twin-Strep-tag) (from UniProt Q9DC37) Q176A” showed an other: Tm (Pro–Arg dipeptide; [7]) of 59 °C, an other: Tm (Leu–Ala dipeptide; [7]) of 48 °C and an other: Tm (Ala-His; [7]) of 36 °C. The other: Tm (His-Ser dipeptide; [7]) was 37 °C, the other: Tm (Ala–Ala dipeptide; [7]) was 40 °C and the other: Tm (Arg–Pro dipeptide; [7]) was 48 °C. It also gave an other: Tm (Lys–Val dipeptide; [7]) of 49 °C, an other: Tm (Anserine; [7]) of 36 °C and an other: Tm (His–Ala dipeptide; [7]) of 42 °C.
In the case of “MFSD1-strep (mouse major facilitator superfamily domain containing 1 protein with N-terminal Twin-Strep-tag) (from UniProt Q9DC37) Y56A”, the other: Tm (Pro–Arg dipeptide; [8]) is reported as 44 °C, the other: Tm (Leu–Ala dipeptide; [8]) is reported as 45 °C and the other: Tm (Ala-His; [8]) is reported as 42 °C. It also gave an other: Tm (His-Ser dipeptide; [8]) of 42 °C, an other: Tm (Ala–Ala dipeptide; [8]) of 41 °C and an other: Tm (Arg–Pro dipeptide; [8]) of 42 °C. The other: Tm (Lys–Val dipeptide; [8]) was 45 °C, the other: Tm (Anserine; [8]) was 42 °C and the other: Tm (His–Ala dipeptide; [8]) was 42 °C.
Work on His–Lys dipeptide yielded a ΔTm at 5 mM ligand [3] of 12 °C.
In the case of `C[C@H](N)C(=O)N[C@@H](C)C(=O)O` [Ala–Ala] (H-Ala-Ala-OH), the inhibition at 20000 µM ([1]; read-out: % inhibition at 20 mM) is reported as 66 ± 3%.
`CC(C)[C@H](NC(=O)[C@@H](N)CCCCN)C(=O)O` [Lys–Val] (H-Lys-Val-OH) showed a Kd [2] of 4.3 ± 0.6 mM.
Lys–Ala dipeptide was tested, and the KM of the Lys–Ala-evoked inward current in MFSD1–GLMP oocytes (TEVC, −40 mV, pH 5.0) [4] was 2.6 mM.
“MFSD1-strep (mouse major facilitator superfamily domain containing 1 protein with N-terminal Twin-Strep-tag) (from UniProt Q9DC37) Q176E” was tested, and the other: Tm (Pro–Arg dipeptide; [9]) was 51 °C, the other: Tm (Leu–Ala dipeptide; [9]) was 52 °C and the other: Tm (Ala-His; [9]) was 40 °C. For the same compound, the other: Tm (His-Ser dipeptide; [9]) was 40 °C, the other: Tm (Ala–Ala dipeptide; [9]) was 42 °C and the other: Tm (Arg–Pro dipeptide; [9]) was 48 °C. It also gave an other: Tm (Lys–Val dipeptide; [9]) of 49 °C, an other: Tm (Anserine; [9]) of 40 °C and an other: Tm (His–Ala dipeptide; [9]) of 44 °C.
Pro–Arg dipeptide was tested, and the ΔTm at 5 mM ligand [3] was 12.1 °C.
